Reference: the supplement of paper PMC10126150
± gives the standard deviation of the averaged measurements.

Test system: ATP
Experiment: switch fluorescence ratio, 500 uM ATP over buffer (Cy3 cluster intensity, sum of 5 cycles each) (fold (ratio)); higher = stronger signal-on switching upon ATP binding; sequences stand for … in TCGTCGGCAGCGTCAGATGTGTATAAGAGACAGTTTTTTTTTTTTTTTTTTTTTTTTT…TC
Conditions: aptamer strand: ATP DNA aptamer (quencher-CACCTGGGGGAGTATTGCGGAGGAAGG + anchor), 100 nM annealed; ATP concentration: 500 uM
Procedure, shortened: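 Values give the fluorescence ratio for each switch-domain sequence, averaged from per-cluster ratios of summed target-cycle to summed buffer-cycle Cy3 intensity. The Cy3-labelled switching-strand clusters sat on a modified Illumina MiSeq flow-cell, were annealed to 100 nM quencher-labelled ATP aptamer, and were imaged in selection buffer, then after 15 min with 500 uM ATP at 22 °C. Five cycles ran with NaOH stripping and re-annealing between them, and clusters outside 100-1000 RFU were excluded.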
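Note: ATP exposure 15 min at 22 °C before imaging.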

CGGGCTAACA
switch fluorescence ratio: 0.972 ± 0.017

CAGGTACATA
switch fluorescence ratio: 1.055 ± 0.0086

TAGACAGGGG
switch fluorescence ratio: 1 ± 0.037

AATAGACGAA
switch fluorescence ratio: 1.01 ± 0.043

GAGTGTGAAA
switch fluorescence ratio: 0.978 ± 0.035

CGTTGTCTAG
switch fluorescence ratio: 0.9713 ± 0.005

TAGGGCGGGA
switch fluorescence ratio: 0.946 ± 0.052

ATCTACGTTG
switch fluorescence ratio: 1.05 ± 0.012

CGTGGTGGG
switch fluorescence ratio: 0.968 ± 0.029

TCCTGAATGA
switch fluorescence ratio: 1 ± 0.03

GGAATCGGTG
switch fluorescence ratio: 0.996 ± 0.04

TTGTGAACCG
switch fluorescence ratio: 0.973 ± 0.014

TTGGGGAGAT
switch fluorescence ratio: 0.989 ± 0.014

CAGGAAGCTG
switch fluorescence ratio: 1.04 ± 0.11

GCGAGTTGGG
switch fluorescence ratio: 0.985 ± 0.022

ATTAGCTTCC
switch fluorescence ratio: 3 ± 0.33

CCAGGCAAGG
switch fluorescence ratio: 1.18 ± 0.019

TTTGATATTC
switch fluorescence ratio: 0.971 ± 0.022

ACGTAGTTTG
switch fluorescence ratio: 1.04 ± 0.033

GATTTTGGAC
switch fluorescence ratio: 1.031 ± 0.0078

GACACGGCAT
switch fluorescence ratio: 1.13 ± 0.018

CGTTGTCATT
switch fluorescence ratio: 0.972 ± 0.036

GGCGGTGTGG
switch fluorescence ratio: 0.981 ± 0.023

AGCTTCAGGG
switch fluorescence ratio: 1.01 ± 0.037

TTCGATTTGC
switch fluorescence ratio: 1.01 ± 0.022

TAAAATGGCG
switch fluorescence ratio: 1 ± 0.055

GAAAGTTCGC
switch fluorescence ratio: 1.02 ± 0.038

CCCGCATGAT
switch fluorescence ratio: 5.66 ± 0.2

CGTATGGCCA
switch fluorescence ratio: 1.0198 ± 0.00072

AGTGGACATC
switch fluorescence ratio: 0.99098 ± 0.00034

AGTGTATATG
switch fluorescence ratio: 1.1 ± 0.099

ACTTGGGCGT
switch fluorescence ratio: 1.03 ± 0.038

TCCCATTTTT
switch fluorescence ratio: 1.01 ± 0.038

TCAAAAAGGA
switch fluorescence ratio: 1.01 ± 0.031

TTCGAAAAAT
switch fluorescence ratio: 1.05 ± 0.064

GCATTTGGCT
switch fluorescence ratio: 1.027 ± 0.0064

GGGTTTTTCG
switch fluorescence ratio: 0.994 ± 0.062

TTCAAACATC
switch fluorescence ratio: 1 ± 0.015

GCTATTTAGT
switch fluorescence ratio: 1.0108 ± 0.00043

AATTGGGGGG
switch fluorescence ratio: 0.998 ± 0.04

AGGTGCCGTG
switch fluorescence ratio: 1.02 ± 0.083

TGTGCGGGTT
switch fluorescence ratio: 1.02 ± 0.02

TTATCGAGGA
switch fluorescence ratio: 0.973 ± 0.021

TTGACGAAGG
switch fluorescence ratio: 0.95 ± 0.026

GGGTTGTGGT
switch fluorescence ratio: 1.01 ± 0.026

TAAAGAACCA
switch fluorescence ratio: 1.016 ± 0.0053

TGGAGTGTGG
switch fluorescence ratio: 0.912 ± 0.087

TTTGAGGGGA
switch fluorescence ratio: 1 ± 0.011

GAAGGTGATC
switch fluorescence ratio: 1.01 ± 0.012

TTTTTCTTCT
switch fluorescence ratio: 1.31 ± 0.36

TTCTGTTTGG
switch fluorescence ratio: 1.01 ± 0.017

GATCGAGTTA
switch fluorescence ratio: 1.034 ± 0.0073

GATGTAATAG
switch fluorescence ratio: 1.57 ± 0.19

TTGAATCGGG
switch fluorescence ratio: 0.944 ± 0.035

ATGAAGCTAG
switch fluorescence ratio: 1.06 ± 0.013

TGCTCCTTAG
switch fluorescence ratio: 1.07 ± 0.03

ATGGGGCATA
switch fluorescence ratio: 1.01 ± 0.045

ACAAACGCTG
switch fluorescence ratio: 1.28 ± 0.0027

CTGGAGTCTG
switch fluorescence ratio: 1.11 ± 0.086

TCATCTTTTT
switch fluorescence ratio: 0.9477 ± 0.0022

GATGGACGTT
switch fluorescence ratio: 0.995 ± 0.035

ATTGGTAACG
switch fluorescence ratio: 0.9981 ± 0.0037

TCTTTTTGGT
switch fluorescence ratio: 0.992 ± 0.018

AAACTGATGC
switch fluorescence ratio: 1.03 ± 0.052

CTAAACAGAA
switch fluorescence ratio: 0.9996 ± 0.0027

AAGATGGAGG
switch fluorescence ratio: 0.973 ± 0.037

GGGCGGGAAC
switch fluorescence ratio: 1.014 ± 0.0088

GGGGATGGGT
switch fluorescence ratio: 0.999 ± 0.045

TGATTGTGCG
switch fluorescence ratio: 0.957 ± 0.021

GGGGAAGATA
switch fluorescence ratio: 0.9862 ± 0.0025

TGGGAAATAC
switch fluorescence ratio: 2.11 ± 0.12

GAGGAAAAGT
switch fluorescence ratio: 0.997 ± 0.051

TTGGGCCGGT
switch fluorescence ratio: 1 ± 0.037

CTGTGATGG
switch fluorescence ratio: 1.0776 ± 0.00079

GAGGGGCCTC
switch fluorescence ratio: 1.03 ± 0.037

TTTTCAGCAA
switch fluorescence ratio: 2.59 ± 1

GACGGTGGCT
switch fluorescence ratio: 1.01 ± 0.023

TTAGAAAGTT
switch fluorescence ratio: 1.03 ± 0.091

TGTAAGAGAT
switch fluorescence ratio: 1.01 ± 0.011

TTGTGTTTCT
switch fluorescence ratio: 0.9974 ± 0.0066

ACAGGTCATT
switch fluorescence ratio: 1.01 ± 0.034

CTGGGACGAT
switch fluorescence ratio: 0.998 ± 0.03

GAGAGCGAGT
switch fluorescence ratio: 1.03 ± 0.036

CCTAGGGTTT
switch fluorescence ratio: 1 ± 0.038

TGAGGGGTGA
switch fluorescence ratio: 1.01 ± 0.029

TGAAGCGGCG
switch fluorescence ratio: 0.942 ± 0.023

AAGGTTGCGC
switch fluorescence ratio: 0.986 ± 0.026

TCGGGGGGAG
switch fluorescence ratio: 1.01 ± 0.018

CATTGGGCGA
switch fluorescence ratio: 0.982 ± 0.022

ATTCGCTGCT
switch fluorescence ratio: 1 ± 0.02

AACTCGTGGG
switch fluorescence ratio: 0.975 ± 0.026

ATAACACTTC
switch fluorescence ratio: 1.03 ± 0.015

GAGATTGCAG
switch fluorescence ratio: 0.974 ± 0.069

AGGGGGTATC
switch fluorescence ratio: 0.988 ± 0.023

AGGGGTGCGC
switch fluorescence ratio: 0.9894 ± 0.0055

TCTGTGTACG
switch fluorescence ratio: 1.04 ± 0.047

GGGTGGTCTG
switch fluorescence ratio: 1.01 ± 0.031

TATCTTTTCT
switch fluorescence ratio: 0.968 ± 0.014

TGAATGTTGG
switch fluorescence ratio: 0.988 ± 0.025

ACCAGCCGGG
switch fluorescence ratio: 1.09 ± 0.062

ATCGTGGGAA
switch fluorescence ratio: 0.9793 ± 0.0059

TGGGTGATAG
switch fluorescence ratio: 0.99 ± 0.035

GGCTGGCTGA
switch fluorescence ratio: 0.987 ± 0.045

AATGTTGTCC
switch fluorescence ratio: 1.007 ± 0.0094

TCATGATAGT
switch fluorescence ratio: 0.9825 ± 0.0081

GTCGGGTACA
switch fluorescence ratio: 1.008 ± 0.0085

GTGGTCAGGC
switch fluorescence ratio: 0.975 ± 0.022

TTTAAAACCA
switch fluorescence ratio: 1.004 ± 0.0039

CGAGGGAGGG
switch fluorescence ratio: 0.999 ± 0.015

TTAGGCTACT
switch fluorescence ratio: 1.01 ± 0.035

TCGAGTATAT
switch fluorescence ratio: 0.981 ± 0.021

TATCCGGGTG
switch fluorescence ratio: 3.23 ± 0.25

TTATACCGTT
switch fluorescence ratio: 0.999 ± 0.01

ATACGAGGTG
switch fluorescence ratio: 1.07 ± 0.035

ACGGGGGCTG
switch fluorescence ratio: 0.996 ± 0.037

AATTCCGATA
switch fluorescence ratio: 1.02 ± 0.026

GCCAGGGACG
switch fluorescence ratio: 1.02 ± 0.028

CAAGGACTGT
switch fluorescence ratio: 1.05 ± 0.016

CCGGGATTTT
switch fluorescence ratio: 1.09 ± 0.13

ACTATTACGG
switch fluorescence ratio: 1.18 ± 0.0094

TCTTTTGGGC
switch fluorescence ratio: 1.02 ± 0.076

ACTAGAGGAC
switch fluorescence ratio: 1 ± 0.04

AAGTCTATAA
switch fluorescence ratio: 1.02 ± 0.046

TTATTTAGCG
switch fluorescence ratio: 1.03 ± 0.029

TTTTTAGCCC
switch fluorescence ratio: 1.02 ± 0.053

CTTAGGGTGT
switch fluorescence ratio: 0.964 ± 0.04

TATGTGTGGG
switch fluorescence ratio: 1.01 ± 0.026

GATCATGTTT
switch fluorescence ratio: 0.98194 ± 0.00037

GAGGTACGCG
switch fluorescence ratio: 1.026 ± 0.0062

TTTGCAGACA
switch fluorescence ratio: 1.01 ± 0.027

ATTAGTGCCG
switch fluorescence ratio: 1.04 ± 0.14

CTAATATTAT
switch fluorescence ratio: 1.01 ± 0.027

AAGTGATGCT
switch fluorescence ratio: 1.03 ± 0.087

TGATAACCGC
switch fluorescence ratio: 1.1 ± 0.039

ACGGCTCAT
switch fluorescence ratio: 1.01 ± 0.037

ACGTTCGCGG
switch fluorescence ratio: 0.985 ± 0.028

GGGTAGAATT
switch fluorescence ratio: 1.03 ± 0.039

ACTACTTTCG
switch fluorescence ratio: 1.03 ± 0.034

TTGGATATTC
switch fluorescence ratio: 0.997 ± 0.033

ATTAAATGGC
switch fluorescence ratio: 1.02 ± 0.012

GGAGATTGTG
switch fluorescence ratio: 0.9766 ± 0.0043

TCGGAGCAGG
switch fluorescence ratio: 1.4 ± 0.058

CTTGGAGGGA
switch fluorescence ratio: 1.02 ± 0.03

CATCTAGGGG
switch fluorescence ratio: 0.999 ± 0.061

GAGATTAATT
switch fluorescence ratio: 0.967 ± 0.016

TTTAGGGGGT
switch fluorescence ratio: 0.991 ± 0.023

TGGAGGGTTT
switch fluorescence ratio: 1.07 ± 0.1

TGGGACCTGG
switch fluorescence ratio: 1.07 ± 0.15

TTTGTGTCTT
switch fluorescence ratio: 0.967 ± 0.024

GGTGGCAAGG
switch fluorescence ratio: 0.9912 ± 0.0094

AGTCTGGGGC
switch fluorescence ratio: 0.942 ± 0.023

ATCAATCTCG
switch fluorescence ratio: 1.017 ± 0.0093

CAGCGCCGGG
switch fluorescence ratio: 0.994 ± 0.017

TGGCGCGTAC
switch fluorescence ratio: 1.81 ± 0.095

TCTTGGATCT
switch fluorescence ratio: 0.987 ± 0.055

CGGTAGACCT
switch fluorescence ratio: 1.105 ± 0.0037

AATCGGGTGC
switch fluorescence ratio: 1.05 ± 0.054

AGGCTAGCGG
switch fluorescence ratio: 1.01 ± 0.019

CGAAATGCTG
switch fluorescence ratio: 1.09 ± 0.016

GTTGGGTGAG
switch fluorescence ratio: 0.987 ± 0.02

TTGGCGGAGG
switch fluorescence ratio: 1.007 ± 0.0058

TAATGAGTCA
switch fluorescence ratio: 1 ± 0.081

ATGACTTTGG
switch fluorescence ratio: 0.977 ± 0.028

TTAGAAATTT
switch fluorescence ratio: 1.01 ± 0.02

TTGTAGCTTT
switch fluorescence ratio: 1.12 ± 0.089

TTGGGCTGGA
switch fluorescence ratio: 0.961 ± 0.054

TATGTGTGAT
switch fluorescence ratio: 0.996 ± 0.013

TGGGGATCGG
switch fluorescence ratio: 0.973 ± 0.025

TGTTTCTCGA
switch fluorescence ratio: 0.9619 ± 0.0041

CTGCTCACAC
switch fluorescence ratio: 1.22 ± 0.046

GGTAGGTGTT
switch fluorescence ratio: 1.04 ± 0.037

AAAAAACGTA
switch fluorescence ratio: 1.08 ± 0.1

GTATTACAGG
switch fluorescence ratio: 1.04 ± 0.04

TTGACTTACT
switch fluorescence ratio: 1.18 ± 0.085

GGTTTGTTTG
switch fluorescence ratio: 0.999 ± 0.025

GTTAGTATAT
switch fluorescence ratio: 1 ± 0.018

AAAAAGATTG
switch fluorescence ratio: 1.06 ± 0.08

ATCGGATGGC
switch fluorescence ratio: 1.06 ± 0.02

TTAGGCGAGG
switch fluorescence ratio: 1.08 ± 0.16

TGGGCTTAAG
switch fluorescence ratio: 1.02 ± 0.026

TTGGCGGGGC
switch fluorescence ratio: 1.02 ± 0.012

TTTTTAGGCA
switch fluorescence ratio: 1 ± 0.042

GGAATCGGGC
switch fluorescence ratio: 0.9487 ± 0.0014

CAGTACTCTT
switch fluorescence ratio: 1.01 ± 0.03

GCGGGGTTGC
switch fluorescence ratio: 1.03 ± 0.033

GATTCGGTTG
switch fluorescence ratio: 0.9897 ± 0.0011

GAGAGGTTCG
switch fluorescence ratio: 0.962 ± 0.012

AACTTTTGCT
switch fluorescence ratio: 1.03 ± 0.066

AATGGGGGTA
switch fluorescence ratio: 0.998 ± 0.034

CCTTTGGGCT
switch fluorescence ratio: 0.989 ± 0.025

TGATCGTCGG
switch fluorescence ratio: 1.02 ± 0.013

CAATTCGAGC
switch fluorescence ratio: 0.988 ± 0.015

TTGGCACAAT
switch fluorescence ratio: 1.05 ± 0.026

GGGTCGTAGG
switch fluorescence ratio: 1.002 ± 0.0011

AAAGAAAAGG
switch fluorescence ratio: 0.989 ± 0.0065

TTCGTTATTA
switch fluorescence ratio: 1.34 ± 0.42

TCCGGAGAAT
switch fluorescence ratio: 1.79 ± 1.1

GAGGAAATCA
switch fluorescence ratio: 0.9877 ± 0.008

TTACAAGGAC
switch fluorescence ratio: 1.049 ± 0.0089

AGTAACGGTG
switch fluorescence ratio: 1.034 ± 0.0019
